# Residue numbers refer to the chain shown, from its start. Read-outs that look alike come from different tables or passages of the source.
# B1: KaiB (natural protein)
# chain: MSPRKTYILKLYVAGNTPNSVRALKTLKNILEVEFQGVYALKVIDVLKNPQLAEEDKILATPTLAKVLPLPVRRIIGDLSDREKVLIGLDLLYGELQDSDDF
# B2: KaiC (natural protein)
# chain: MTSAEMTSPNNNSEHQAIAKMRTMIEGFDDISHGGLPIGRSTLVSGTSGTGKTLFSIQFLYNGIIEFDEPGVFVTFEETPQDIIKNARSFGWDLAKLVDEGKLFILDASPDPEGQEVVGGFDLSALIERINYAIQKYRARRVSIDSVTSVFQQYDASSVVRRELFRLVARLKQIGATTVMTTERIEEYGPIARYGVEEFVSDNVVILRNVLEGERRRRTLEILKLRGTSHMKGEYPFTITDHGINIFPLGAMRLTQRSSNVRVSSGVVRLDEMCGGGFFKDSIILATGATGTGKTLLVSRFVENACANKERAILFAYEESRAQLLRNAYSWGMDFEEMERQNLLKIVCAYPESAGLEDHLQIIKSEINDFKPARIAIDSLSALARGVSNNAFRQFVIGVTGYAKQEEITGLFTNTSDQFMGAHSITDSHISTITDTIILLQYVEIRGEMSRAINVFKMRGSWHDKAIREFMISDKGPDIKDSFRNFERIISGSPTRITVDEKSELSRIVRGVQEKGPES
# B3: KaiCDT (phosphorylation mimic KaiC) (natural protein)
# chain: B2 chain with S431D
# B4: KaiCAA (dephosphorylation mimic KaiC) (natural protein)
# chain: B2 chain with S431A, T432A
# B5: KaiA (natural protein)
# chain: MLSQIAICIWVESTAILQDCQRALSADRYQLQVCESGEMLLEYAQTHRDQIDCLILVAANPSFRAVVQQLCFEGVVVPAIVVGDRDSEDPDEPAKEQLYHSAELHLGIHQLEQLPYQVDAALAEFLRLAPVETMADHIMLMGANHDPELSSQQRDLAQRLQERLGYLGVYYKRDPDRFLRNLPAYESQKLHQAMQTSYREIVLSYFSPNSNLNQSIDNFVNMAFFADVPVTKVVEIHMELMDEFAKKLRVEGRSEDILLDYRLTLIDVIAHLCEMYRRSIPRET
# How the values were obtained:
# Assay in all cases: AUC
# [1] = biological target: B3
# [2] = biological target: the molecule itself
# [3] = biological target: B2
# [4] = biological target: the molecule itself; remark: listed apart in the source
# [5] = biological target: B5
Binder,stoichiometry N [2],stoichiometry N [4],other results
B1,4,,binding result [1]: binds; binding result [3]: binds
B2,,6,
B3,,,binding result [2]: binds
B4,,6,binding result [5]: binds
B5,2,,
